Common to all, as to conditions: both partners purified
In test [1] the target is T1, VPS15 (subunit of complex II–BATS in the cryo-ET structure) (human, UniProt Q99570 1-1358).
T1 construct: VPS15, human; source: Expi293F, transfected, purified within complex II–BATS
Put plainly: cryo-EM structure; cryo-ET and subtomogram averaging, 9.8 Å; 16 μM complex II–BATS on LUVs decorated with Rab5a–GTP.

In test [2] the target is T2, VPS34 (subunit of complex II–BATS in the cryo-ET structure) (human, UniProt Q8NEB9 1-887).
T2 construct: VPS34, human; source: Expi293F, transfected, purified within complex II–BATS
Described as above.

Test [3] deals with T3, human VPS34 complex I (VPS34/VPS15/Beclin 1/ATG14L) (human, UniProt Q8NEB9 1-887; Q99570 1-1358; Q14457 1-450; Q6ZNE5 1-492).
T3 construct: VPS34, human, subunit of complex I; VPS15, human, subunit of complex I; Beclin 1, human, subunit of complex I; ATG14L, human, subunit of complex I; Heterotetramer; Purified on IgG beads and released with TEV protease; also called autophagy-specific complex I; source: Expi293F, transfected, purified (IgG beads, TEV protease elution, S200 gel filtration); copies: + + +
Put plainly: vesicle flotation assay; GTP-loaded Rab coupled by its C-terminal Cys to PE-MCC in 100 nm LUVs; 1.8 mM LUVs and 2 μM VPS34 complex, 25 mM HEPES pH 8.0, 150 mM NaCl, 1 mM TCEP, 30 min on ice; sucrose gradient, fractions on SDS-PAGE.

Test [4] addresses T4, human VPS34 complex II (VPS34/VPS15/Beclin 1/UVRAG) (human, UniProt Q8NEB9 1-887; Q99570 1-1358; Q14457 1-450; Q9P2Y5 1-699).
T4 construct: VPS34, human, subunit of complex II; VPS15, human, subunit of complex II; Beclin 1, human, subunit of complex II; UVRAG, human, subunit of complex II; Heterotetramer; Purified on IgG beads and released with TEV protease; also called endocytic complex II; source: Expi293F, transfected, purified (IgG beads, TEV protease elution, S200 gel filtration); copies: + + +
The test is described as above.

In a further test the target is T5, human VPS34 alone (human, UniProt Q8NEB9 1-887).
T5 construct: VPS34, human; printed mass 102 kDa; source: E. coli C41 (DE3), purified (Ni-NTA, heparin, gel filtration)
Put plainly: cross-linking; proximity-triggered cross-linking by the unnatural amino acid BrCO6K at Rab5a residue 84; 50–100 molar excess of Rab5a over complex II, 100–200 molar excess over VPS34; overnight at 4 °C; SDS-PAGE and mass spectrometry of the bands.

The target in test [5] is T4, human VPS34 complex II …. Described as above.
Test [6] has as its target T4, human VPS34 complex II …. Description: HDX-MS; complex II (5 μM) alone or with 30 μM Rab5a-Q79L-GTP; 25 mM HEPES pH 8.0, 50 mM NaCl, 1 mM TCEP, room temperature; 3/30/300/3000 s.

Substitutions are numbered along the chain they refer to. In names and notes the source's numbering stands.

T4 sequence (Q8NEB9 whole entry, chain 1 of 4): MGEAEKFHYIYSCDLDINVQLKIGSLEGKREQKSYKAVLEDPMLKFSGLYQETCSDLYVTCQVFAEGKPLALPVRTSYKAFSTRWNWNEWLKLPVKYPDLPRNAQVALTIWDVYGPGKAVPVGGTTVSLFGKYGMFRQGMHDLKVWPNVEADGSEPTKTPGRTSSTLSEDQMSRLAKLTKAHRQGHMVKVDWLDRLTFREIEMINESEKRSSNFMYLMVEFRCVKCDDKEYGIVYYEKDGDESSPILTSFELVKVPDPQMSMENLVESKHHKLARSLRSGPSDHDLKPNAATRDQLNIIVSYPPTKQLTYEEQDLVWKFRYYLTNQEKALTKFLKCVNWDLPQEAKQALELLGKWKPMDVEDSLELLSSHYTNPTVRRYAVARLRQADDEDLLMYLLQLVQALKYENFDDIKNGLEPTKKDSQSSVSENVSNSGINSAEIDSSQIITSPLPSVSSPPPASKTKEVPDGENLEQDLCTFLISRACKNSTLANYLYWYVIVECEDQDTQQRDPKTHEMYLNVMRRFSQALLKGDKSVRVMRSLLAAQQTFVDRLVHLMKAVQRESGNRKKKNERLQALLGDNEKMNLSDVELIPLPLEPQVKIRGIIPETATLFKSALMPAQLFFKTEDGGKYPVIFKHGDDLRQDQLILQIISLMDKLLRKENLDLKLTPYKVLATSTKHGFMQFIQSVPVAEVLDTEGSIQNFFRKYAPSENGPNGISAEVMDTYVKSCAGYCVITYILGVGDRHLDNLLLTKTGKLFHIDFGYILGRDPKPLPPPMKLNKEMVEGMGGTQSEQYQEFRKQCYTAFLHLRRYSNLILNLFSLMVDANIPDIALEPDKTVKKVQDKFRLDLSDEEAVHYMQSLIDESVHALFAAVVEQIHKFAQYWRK
T4 sequence (Q99570 whole entry, chain 2 of 4): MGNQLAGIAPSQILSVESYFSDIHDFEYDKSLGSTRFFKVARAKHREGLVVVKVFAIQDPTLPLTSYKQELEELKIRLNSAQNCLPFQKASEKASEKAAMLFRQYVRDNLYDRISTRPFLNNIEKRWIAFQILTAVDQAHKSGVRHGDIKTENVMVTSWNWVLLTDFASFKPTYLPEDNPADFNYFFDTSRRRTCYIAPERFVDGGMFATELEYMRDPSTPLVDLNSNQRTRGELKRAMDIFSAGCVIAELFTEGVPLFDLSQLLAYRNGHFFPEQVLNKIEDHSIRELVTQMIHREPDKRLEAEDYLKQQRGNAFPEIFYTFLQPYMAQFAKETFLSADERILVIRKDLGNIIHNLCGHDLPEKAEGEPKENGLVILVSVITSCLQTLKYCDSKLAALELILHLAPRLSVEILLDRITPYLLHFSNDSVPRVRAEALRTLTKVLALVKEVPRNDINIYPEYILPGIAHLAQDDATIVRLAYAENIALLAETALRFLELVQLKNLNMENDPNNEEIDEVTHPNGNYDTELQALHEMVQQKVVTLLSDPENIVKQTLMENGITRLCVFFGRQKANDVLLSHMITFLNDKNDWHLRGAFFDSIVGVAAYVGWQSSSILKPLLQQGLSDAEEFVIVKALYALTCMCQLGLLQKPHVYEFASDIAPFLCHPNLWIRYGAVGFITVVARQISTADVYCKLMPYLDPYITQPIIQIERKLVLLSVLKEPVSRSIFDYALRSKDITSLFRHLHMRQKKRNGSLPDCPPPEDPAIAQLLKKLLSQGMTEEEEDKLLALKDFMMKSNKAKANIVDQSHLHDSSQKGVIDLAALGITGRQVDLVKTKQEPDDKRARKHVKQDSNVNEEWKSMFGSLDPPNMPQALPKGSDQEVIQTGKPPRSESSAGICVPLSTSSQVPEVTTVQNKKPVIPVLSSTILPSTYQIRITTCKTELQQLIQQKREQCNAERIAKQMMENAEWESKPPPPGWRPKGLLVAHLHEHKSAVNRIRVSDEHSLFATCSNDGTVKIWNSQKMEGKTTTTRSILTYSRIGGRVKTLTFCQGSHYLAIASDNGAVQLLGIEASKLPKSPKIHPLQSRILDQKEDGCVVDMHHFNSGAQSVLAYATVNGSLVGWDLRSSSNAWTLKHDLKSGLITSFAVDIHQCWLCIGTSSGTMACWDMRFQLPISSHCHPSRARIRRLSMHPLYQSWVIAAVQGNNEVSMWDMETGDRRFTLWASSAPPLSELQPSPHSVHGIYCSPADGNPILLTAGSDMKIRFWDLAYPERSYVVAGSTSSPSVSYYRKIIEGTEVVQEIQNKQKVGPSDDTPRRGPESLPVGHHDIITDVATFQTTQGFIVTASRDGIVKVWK
T4 sequence (Q14457 whole entry, chain 3 of 4): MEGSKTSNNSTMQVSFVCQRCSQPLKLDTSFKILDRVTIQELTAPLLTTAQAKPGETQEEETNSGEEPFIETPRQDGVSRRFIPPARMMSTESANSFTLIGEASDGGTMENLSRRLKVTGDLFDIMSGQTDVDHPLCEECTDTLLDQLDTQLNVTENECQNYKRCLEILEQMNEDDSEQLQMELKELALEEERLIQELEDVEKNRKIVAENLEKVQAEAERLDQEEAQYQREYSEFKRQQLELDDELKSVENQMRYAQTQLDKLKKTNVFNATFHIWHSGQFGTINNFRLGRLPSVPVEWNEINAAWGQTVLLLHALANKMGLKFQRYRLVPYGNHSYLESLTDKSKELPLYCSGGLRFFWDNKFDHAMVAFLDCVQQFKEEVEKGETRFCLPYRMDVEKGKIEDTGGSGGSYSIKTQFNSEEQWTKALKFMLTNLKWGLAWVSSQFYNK
T4 sequence (Q9P2Y5 whole entry, chain 4 of 4): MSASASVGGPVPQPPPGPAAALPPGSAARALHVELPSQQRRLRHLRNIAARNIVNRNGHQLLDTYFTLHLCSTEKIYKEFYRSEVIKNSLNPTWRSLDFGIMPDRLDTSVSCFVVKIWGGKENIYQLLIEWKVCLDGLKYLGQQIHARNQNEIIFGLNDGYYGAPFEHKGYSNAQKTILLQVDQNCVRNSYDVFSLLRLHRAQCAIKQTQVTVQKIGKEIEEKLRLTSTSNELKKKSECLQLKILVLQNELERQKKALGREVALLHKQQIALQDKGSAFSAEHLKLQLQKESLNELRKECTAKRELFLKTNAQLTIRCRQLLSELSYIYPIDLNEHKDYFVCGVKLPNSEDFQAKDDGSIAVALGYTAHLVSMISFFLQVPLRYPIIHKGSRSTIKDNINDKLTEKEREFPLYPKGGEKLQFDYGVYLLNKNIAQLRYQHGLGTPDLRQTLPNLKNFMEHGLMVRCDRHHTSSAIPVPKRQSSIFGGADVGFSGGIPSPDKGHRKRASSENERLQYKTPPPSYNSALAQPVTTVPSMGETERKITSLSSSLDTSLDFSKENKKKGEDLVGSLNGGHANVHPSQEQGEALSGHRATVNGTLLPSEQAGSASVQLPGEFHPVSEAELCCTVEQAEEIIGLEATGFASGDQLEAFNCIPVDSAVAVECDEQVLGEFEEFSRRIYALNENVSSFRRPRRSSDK
T3 sequence (Q8NEB9 whole entry, chain 1 of 4): as the sequence (Q8NEB9 whole entry, chain 1 of 4) above
T3 sequence (Q99570 whole entry, chain 2 of 4): as the sequence (Q99570 whole entry, chain 2 of 4) above
T3 sequence (Q14457 whole entry, chain 3 of 4): as the sequence (Q14457 whole entry, chain 3 of 4) above
T3 sequence (Q6ZNE5 whole entry, chain 4 of 4): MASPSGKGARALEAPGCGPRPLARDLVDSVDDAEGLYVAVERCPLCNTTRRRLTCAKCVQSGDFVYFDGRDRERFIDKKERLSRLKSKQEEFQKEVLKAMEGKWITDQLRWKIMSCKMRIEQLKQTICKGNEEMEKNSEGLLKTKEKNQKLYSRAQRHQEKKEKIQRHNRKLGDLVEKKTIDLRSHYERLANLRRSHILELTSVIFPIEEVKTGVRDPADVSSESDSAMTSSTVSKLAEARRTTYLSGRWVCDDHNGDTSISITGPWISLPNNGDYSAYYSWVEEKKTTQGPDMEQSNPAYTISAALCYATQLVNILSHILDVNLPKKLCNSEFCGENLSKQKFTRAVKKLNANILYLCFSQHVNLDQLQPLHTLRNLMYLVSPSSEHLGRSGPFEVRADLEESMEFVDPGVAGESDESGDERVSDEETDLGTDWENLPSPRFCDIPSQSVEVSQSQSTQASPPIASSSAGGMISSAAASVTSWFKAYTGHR
T5 sequence (Q8NEB9 whole entry): as the sequence (Q8NEB9 whole entry, chain 1 of 4) above
T2 sequence (Q8NEB9 whole entry, one chain of several): as the sequence (Q8NEB9 whole entry, chain 1 of 4) above
T1 sequence (Q99570 whole entry, one chain of several): as the sequence (Q99570 whole entry, chain 2 of 4) above

B1: Rab5a(1–212)-Q79L-C19S-C63S (natural protein, human, UniProt P20339 1-212, looked up)
chain: MASRGATRPNGPNTGNKISQFKLVLLGESAVGKSSLVLRFVKGQFHEFQESTIGAAFLTQTVSLDDTTVKFEIWDTAGLERYHSLAPMYYRGAQAAIVVYDITNEESFARAKNWVKELQRQASPNIVIALSGNKADLANKRAVDFQEAQSYADDNSLLFMETSAKTSMNVNEIFMAIAKKLPKNEPQNPGANSARGRGVDLTEPTQPTRNQC
modifications: C-terminal cysteine coupled covalently to a maleimide-conjugated lipid (PE-MCC) in the membrane
notes: Rab5a, human, residues 1–212; Loaded with GTP or GDP before coupling to GUVs or LUVs; also called Rab5a (Q79L); membrane-anchored Rab5a–GTP; source: E. coli C41(DE3)RIPL, purified (Ni-NTA, SUMO protease, size-exclusion chromatography); not shown: His-SUMO, N-terminal, cleaved
For the molecule B1, the binding result in test [1], in test [2], in test [3] and in test [4] was “binds” throughout.

B2: Rab5a S84BrCO6K (Rab5a_Q79L_1-212_C19S_C63S_S84TAG-His6) (natural protein, human, UniProt P20339 1-212, looked up)
chain: B1 chain with S84K
modifications: BrCO6K (bromoalkyl-bearing lysine derivative, unnatural amino acid) at 84
notes: Rab5a, human, residues 1-212, amber codon at S84 read as BrCO6K; Loaded with GTP; Residue 84 is the lysine derivative BrCO6K, written as K; also called Rab5a–GTP–BrCO6K; Rab5a-84BrCO6K; source: E. coli DH10B, purified (Ni-NTA, size-exclusion chromatography)
On to B2, for which the binding result (in the test with human VPS34 alone; in test [5]) was “binds” in each case.

B3: Rab5a(1-211)-Q79L (natural protein, human, UniProt P20339 1-211, looked up)
chain: MASRGATRPNGPNTGNKICQFKLVLLGESAVGKSSLVLRFVKGQFHEFQESTIGAAFLTQTVCLDDTTVKFEIWDTAGLERYHSLAPMYYRGAQAAIVVYDITNEESFARAKNWVKELQRQASPNIVIALSGNKADLANKRAVDFQEAQSYADDNSLLFMETSAKTSMNVNEIFMAIAKKLPKNEPQNPGANSARGRGVDLTEPTQPTRNQ
notes: Rab5a, human, last 4 residues (CCSN) deleted, residues 1-211; Loaded with GTP; used soluble for HDX-MS; also called Rab5a-Q79L-GTP; Rab5a (Q79L) loaded with GTP; source: E. coli C41(DE3)RIPL, purified (as Rab5a(1–212)); not shown: His-SUMO, N-terminal, cleaved
As for B3, the binding result in test [6] is on record as “binds”.

B4: Rab1a(1–204)-Q70L-C26S-C126S (natural protein)
chain: not shown
modifications: C-terminal cysteine coupled covalently to a maleimide-conjugated lipid (PE-MCC) in the membrane
notes: Loaded with GTP or GDP before coupling to GUVs or LUVs; also called Rab1a–GTP; Rab1a–GDP; source: E. coli C41(DE3)RIPL, purified (Glutathione Sepharose, TEV protease, HiTrap Q, heparin, size-exclusion chromatography); not shown: GST, N-terminal, cleaved
As for B4, in test [3], the binding result is “binds”.

These data come from publication PMC7946940 (Nature Communications, 2021).
